We go through 2 molecules from US6011146A, “Altered major histocompatibility complex (MHC) determinant and methods of using the determinant” (Institut Pasteur, priority 1995, dated 2000).

One assay concerns the target SC-K^d -15 (mouse) (UniProt P01887).
The target in assay [1] is K^d molecules isolated from the spleen of BALB/c mice (mouse, UniProt P01887). Put plainly: direct peptide binding assay, peptide coated on plastic, 125I-labeled K^d.

“And” between values parts separate entries of the source, which are not always exact repeats. Equal entries are not always repeated.

Regarding influenza NPR- 147-158 (peptide), the cpm bound with SC-K^d -15 (mouse) is 214 cpm and 171 cpm.

With TYQRTRALVTG [influenza NPR- 147-158], the binding result in assay [1] is “no binding (tested: 10 µg/ml; pH 9.6)”.
